In patent publication US20040242847A1 one finds proliferation of BaF/mpl cells (WST-8), ED50 data, which are given here for one substance.

The target in the test is human TPO receptor (MPL) (human) (UniProt P40238). As to the kind of experiment: cell-based or functional assay.

For “human TPO (R&D Systems) (from UniProt P40225 22-353) (ligand)”, the proliferation of BaF/mpl cells (WST-8), ED50 was 27 pM.
